# B1: GpH7-A5/GpH7-B3 variant L234_14T/GpL16-k0 (antibody, human IgG1, kappa)
# heavy 1: not shown
# heavy 2: not shown
# light: DIVMTQSPLSLPVTPGEPASISCQASESLVHSNRNTYLHWYLQKPGQSPQLLIYKVSNRFSGVPDRFSGSGSGTDFTLKISRVEAEDVGVYYCSQNTHVPPTFGQGTKVEIERTVAAPSVFIFPPSDEQLKSGTASVVCLLNNFYPREAKVQWKVDNALQSGNSQESVTEQDSKDSTYSLSSTLTLSKADYEKHKVYACEVTHQGLSSPVTKSFNRGEC
# notes: He Ab; copies: 1 + 1 + 2
# B2: GpH7-A5/GpH7-B3 variant I332_04F/GpL16-k0 (antibody, human IgG1, kappa)
# heavy 1: not shown
# heavy 2: not shown
# light: B1 light
# notes: He Ab; copies: 1 + 1 + 2
# B3: GpH7-A5/GpH7-B3 variant H268_20W/GpL16-k0 (antibody, human IgG1, kappa)
# heavy 1: not shown
# heavy 2: not shown
# light: B1 light
# notes: He Ab; copies: 1 + 1 + 2
# B4: GpH7-A5/GpH7-B3 variant I332_03V/GpL16-k0 (antibody, human IgG1, kappa)
# heavy 1: not shown
# heavy 2: not shown
# light: B1 light
# notes: He Ab; copies: 1 + 1 + 2
# B5: GpH7-A5/GpH7-B3 variant H268_07I/GpL16-k0 (antibody, human IgG1, kappa)
# heavy 1: not shown
# heavy 2: not shown
# light: B1 light
# notes: He Ab; copies: 1 + 1 + 2
# B6: GpH7-A5/GpH7-B3 variant H268_08L/GpL16-k0 (antibody, human IgG1, kappa)
# heavy 1: not shown
# heavy 2: not shown
# light: B1 light
# notes: He Ab; copies: 1 + 1 + 2
# B7: GpH7-A5/GpH7-B3 variant K326_04F/GpL16-k0 (antibody, human IgG1, kappa)
# heavy 1: not shown
# heavy 2: not shown
# light: B1 light
# notes: He Ab; copies: 1 + 1 + 2
# B8: GpH7-A5/GpH7-B3 variant K326_01G/GpL16-k0 (antibody, human IgG1, kappa)
# heavy 1: not shown
# heavy 2: not shown
# light: B1 light
# notes: He Ab; copies: 1 + 1 + 2
# B9: GpH7-A5/GpH7-B3 variant L234_04F/GpL16-k0 (antibody, human IgG1, kappa)
# heavy 1: not shown
# heavy 2: not shown
# light: B1 light
# notes: He Ab; copies: 1 + 1 + 2
# B10: GpH7-A5/GpH7-B3 variant L234_01G/GpL16-k0 (antibody, human IgG1, kappa)
# heavy 1: not shown
# heavy 2: not shown
# light: B1 light
# notes: He Ab; copies: 1 + 1 + 2
# B11: GpH7-A5/GpH7-B3 variant H268_03V/GpL16-k0 (antibody, human IgG1, kappa)
# heavy 1: not shown
# heavy 2: not shown
# light: B1 light
# notes: He Ab; copies: 1 + 1 + 2
# B12: GpH7-A5/GpH7-B3 variant L234_18N/GpL16-k0 (antibody, human IgG1, kappa)
# heavy 1: not shown
# heavy 2: not shown
# light: B1 light
# notes: He Ab; copies: 1 + 1 + 2
# B13: GpH7-A5/GpH7-B3 variant H268_09D/GpL16-k0 (antibody, human IgG1, kappa)
# heavy 1: not shown
# heavy 2: not shown
# light: B1 light
# notes: He Ab; copies: 1 + 1 + 2
# B14: GpH7-A5/GpH7-B3 variant K326_09D/GpL16-k0 (antibody, human IgG1, kappa)
# heavy 1: not shown
# heavy 2: not shown
# light: B1 light
# notes: He Ab; copies: 1 + 1 + 2
# B15: GpH7-A5/GpH7-B3 variant I332_02A/GpL16-k0 (antibody, human IgG1, kappa)
# heavy 1: not shown
# heavy 2: not shown
# light: B1 light
# notes: He Ab; copies: 1 + 1 + 2
# B16: GpH7-A5/GpH7-B3 variant L234_16H/GpL16-k0 (antibody, human IgG1, kappa)
# heavy 1: not shown
# heavy 2: not shown
# light: B1 light
# notes: He Ab; copies: 1 + 1 + 2
# B17: GpH7-A5/GpH7-B3 variant L234_19Q/GpL16-k0 (antibody, human IgG1, kappa)
# heavy 1: not shown
# heavy 2: not shown
# light: B1 light
# notes: He Ab; copies: 1 + 1 + 2
# B18: GpH7-A5/GpH7-B3 variant L234_10E/GpL16-k0 (antibody, human IgG1, kappa)
# heavy 1: not shown
# heavy 2: not shown
# light: B1 light
# notes: He Ab; copies: 1 + 1 + 2
# B19: GpH7-A5/GpH7-B3 variant H268_18N/GpL16-k0 (antibody, human IgG1, kappa)
# heavy 1: not shown
# heavy 2: not shown
# light: B1 light
# notes: He Ab; copies: 1 + 1 + 2
# B20: GpH7-A5/GpH7-B3 variant L234_15Y/GpL16-k0 (antibody, human IgG1, kappa)
# heavy 1: not shown
# heavy 2: not shown
# light: B1 light
# notes: He Ab; copies: 1 + 1 + 2
# B21: GpH7-A5/GpH7-B3 variant H268_06M/GpL16-k0 (antibody, human IgG1, kappa)
# heavy 1: not shown
# heavy 2: not shown
# light: B1 light
# notes: He Ab; copies: 1 + 1 + 2
# B22: GpH7-A5/GpH7-B3 variant I332_19Q/GpL16-k0 (antibody, human IgG1, kappa)
# heavy 1: not shown
# heavy 2: not shown
# light: B1 light
# notes: He Ab; copies: 1 + 1 + 2
# B23: GpH7-A5/GpH7-B3 variant L234_07I/GpL16-k0 (antibody, human IgG1, kappa)
# heavy 1: not shown
# heavy 2: not shown
# light: B1 light
# notes: He Ab; copies: 1 + 1 + 2
# B24: GpH7-A5/GpH7-B3 variant K326_18N/GpL16-k0 (antibody, human IgG1, kappa)
# heavy 1: not shown
# heavy 2: not shown
# light: B1 light
# notes: He Ab; copies: 1 + 1 + 2
# B25: GpH7-A5/GpH7-B3 variant K326_03V/GpL16-k0 (antibody, human IgG1, kappa)
# heavy 1: not shown
# heavy 2: not shown
# light: B1 light
# notes: He Ab; copies: 1 + 1 + 2
# B26: GpH7-A5/GpH7-B3 variant K326_16H/GpL16-k0 (antibody, human IgG1, kappa)
# heavy 1: not shown
# heavy 2: not shown
# light: B1 light
# notes: He Ab; copies: 1 + 1 + 2
# B27: GpH7-A5/GpH7-B3 variant L234_09D/GpL16-k0 (antibody, human IgG1, kappa)
# heavy 1: not shown
# heavy 2: not shown
# light: B1 light
# notes: He Ab; copies: 1 + 1 + 2
# B28: GpH7-A5/GpH7-B3 variant H268_19Q/GpL16-k0 (antibody, human IgG1, kappa)
# heavy 1: not shown
# heavy 2: not shown
# light: B1 light
# notes: He Ab; copies: 1 + 1 + 2
# B29: GpH7-A5/GpH7-B3 variant K326_07I/GpL16-k0 (antibody, human IgG1, kappa)
# heavy 1: not shown
# heavy 2: not shown
# light: B1 light
# notes: He Ab; copies: 1 + 1 + 2
# B30: GpH7-A5/GpH7-B3 variant K326_12R/GpL16-k0 (antibody, human IgG1, kappa)
# heavy 1: not shown
# heavy 2: not shown
# light: B1 light
# notes: He Ab; copies: 1 + 1 + 2
# B31: GpH7-A5/GpH7-B3 variant L235_01G/GpL16-k0 (antibody, human IgG1, kappa)
# heavy 1: not shown
# heavy 2: not shown
# light: B1 light
# notes: He Ab; copies: 1 + 1 + 2
# Target: T1, FcγRIIIa extracellular domain, C-terminal His tag (human, UniProt P08637 17-208)
# T1 construct: extracellular domain; also called 3a
# Experiment: SPR, binding activity relative to GpH7-A5/GpH7-B3/GpL16-k0 (=100)
# T1 sequence (P08637 other isoform, or with tags, fused parts or gaps): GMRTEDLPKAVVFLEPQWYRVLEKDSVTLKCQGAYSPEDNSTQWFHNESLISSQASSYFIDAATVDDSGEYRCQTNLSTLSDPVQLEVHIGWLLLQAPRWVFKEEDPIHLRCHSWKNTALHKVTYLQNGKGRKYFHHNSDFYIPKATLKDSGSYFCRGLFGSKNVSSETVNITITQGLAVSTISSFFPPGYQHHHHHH
row,He/Con 3a [%],Binder
1,69.8,B1
2,89.3,B2
3,82,B3
4,85.2,B4
5,84.1,B5
6,75.9,B6
7,114,B7
8,114,B8
9,114,B9
10,55.8,B10
11,91.4,B11
12,88.2,B12
13,195,B13
14,148,B14
15,103,B15
16,76.8,B16

row,He/Con 3a [%],Binder
1,77.1,B17
2,111,B18
3,103,B19
4,126,B20
5,79.5,B21
6,101,B22
7,99.5,B23
8,134,B24
9,135,B25
10,106,B26
11,113,B27
12,113,B28
13,153,B29
14,101,B30
15,56.7,B31

# From US20260167699A1 (Chugai, published 2026)
